What was measured:
[1] = subcutaneous injection of 25 mg twice a week; cited from earlier work
new onset T1DM NOD mice = assay: Restoration of euglycemia in new onset diabetic NOD mice; format: in vivo, mouse; conditions: NOD-sp hosts; treatment 28 days
Description: We tested the efficacy of a 14- or 28-day course of Power Mix (RPM+IL-2/Fc+mIL-15/Fc) in new onset (>10 days) T1DM NOD mice whose repeated blood glucose levels ranged from 300 to 450 mg/dl. All non-treated diabetic NOD mice remained hyperglycemic without spontaneous remissions (Table 1, group A) and most died within 7 weeks despite insulin treatment (data not shown). In contrast, euglycemia was achieved within 5-7 weeks and maintained throughout a follow up period of over 300 days in 55 of 60 diabetic NOD mice treated with the RPM+IL-2/Fc+mIL-15/Fc regimen (Table 1 groups B and C). By comparison, remissions were less frequent (Table 1, Groups D-F) and delayed if elements of the treatment mix were eliminated.
To determine whether the presence of the T cell regulatory-enriched CD25+ T cell population is crucial to the beneficial therapeutic effects of Power Mix, prior to administration, we treated new onset diabetic NOD mice with an anti-CD25 mAb regimen known to delete CD4+CD25+ T cells (Zheng et al., Adv. Exp. Med. Biol., 520:87-95, 2003; Sanchez-Fueyo et al., Nat. Immunol., 4:1093-1101, 2003). Seven days after the initiation of anti-CD25 mAb treatment, these CD25+ T cell depleted mice received regimen treatment for 28 days (Table 1, Group G). […]
Blood glucose levels of NOD mice were monitored twice weekly with the Accu-Check blood glucose monitor system (Roche, Indianapolis, Ind.). […]

Etanercept
Time to peak blood levels (average) [1]: 72 h

CO[C@H]1C[C@@H]2CC[C@@H](C)[C@@](O)(O2)C(=O)C(=O)N2CCCC[C@H]2C(=O)O[C@H]([C@H](C)C[C@@H]2CC[C@@H](O)[C@H](OC)C2)CC(=O)[C@H](C)/C=C(\C)[C@@H](O)[C@@H](OC)C(=O)[C@H](C)C[C@H](C)/C=C/C=C/C=C/1C [RPM, rapamycin]
Restored to Normoglycemia (#/total treated) (new onset T1DM NOD mice): 5/19

Reference: patent US20110020269A1, “METHODS AND COMPOSITIONS FOR MODIFYING T CELL IMMUNE RESPONSES AND INFLAMMATION” (Beth Israel Deaconess Medical Center, Inc., priority 2007, published 2011)
